How the values were obtained:
[1] = molecular target: T1, human ICOS-mFc (Chimerigen) (human, UniProt Q9Y6W8 21-140); assay: HTRF neutralisation of Alexa 647 human B7-H2 binding to human ICOS-mFc; human IgG4.PE table; n = 1
T1 construct: also called human ICOS receptor; human ICOS Receptor; not shown: mouse Fc of the bought construct
T1 sequence: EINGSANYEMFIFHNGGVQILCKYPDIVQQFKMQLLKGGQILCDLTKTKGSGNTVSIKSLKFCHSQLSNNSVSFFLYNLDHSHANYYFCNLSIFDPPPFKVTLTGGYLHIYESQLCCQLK
Method: (§1) 5 μl of ICOS receptor (human ICOS-mFc, 20 nM, 5 nM final or mouse ICOS-mFc 4 nM, 1 nM final (Chimerigen)) was added to required wells. Plate was incubated for 1 hr at room temperature (RT).
(§2) Finally, 5 μl of anti-mouse IgG donor mAb (Southern Biotech) labelled with europium cryptate (Cis Bio), 40 nM, 10 nM final was added to each well and the assay was left in the dark at RT to incubate for a further 2 hours. After incubation, assay was read on Envision plate reader (Perkin Elmer) using a standard HTRF protocol. […] Titration curves and IC50 values [M] were plotted using Graphpad (Prism). IC50 values were calculated by first transforming the data using equation X=Log(X). The transformed data was then fitted using nonlinear regression, using fitting algorithm, log (inhibitor) vs. response—variable slope (four parameters).

[2] = molecular target: T2, mouse ICOS-mFc (Chimerigen) (mouse, UniProt Q9WVS0 21-141, limits assumed); assay: HTRF neutralisation of Alexa 647 mouse B7-H2 binding to mouse ICOS-mFc; human IgG4.PE; mean, n = 3
T2 construct: also called mouse ICOS receptor; mouse ICOS Receptor; not shown: mouse Fc of the bought construct
T2 sequence: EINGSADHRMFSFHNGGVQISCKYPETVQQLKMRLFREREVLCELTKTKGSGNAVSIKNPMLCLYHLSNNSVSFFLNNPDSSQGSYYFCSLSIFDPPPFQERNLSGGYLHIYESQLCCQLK
Method: as §1, §2

[3] = molecular target: T1, human ICOS-mFc (Chimerigen); assay: HTRF neutralisation of Alexa 647 human B7-H2 binding to human ICOS-mFc; human IgG4.PE; mean, n = 3
Method: as §1, §2

| Binder | IC50 [1] | IC50 [2] | IC50 [3] |
| --- | --- | --- | --- |
| STIM006 human IgG4.PE (antibody, V domains shown) VH: QVQLVESGGGLVKPGGSLRLSCAASGFTFSDYFMSWIRQAPGKGLEWISYISSSGSTIYYADSVRGRFTISRDNAKYSLYLQMNSLRSEDTAVYYCARDHYDGSGIYPLYYYYGLDVWGQGTTVTVSS VL: not shown | 0.8 nM |  |  |
| STIM004 human IgG4.PE (antibody, V domains shown, Human IgG4.PE (null-effector) format) VH: EVQLVESGGGVVRPGGSLRLSCAASGLTFDDYGMSWVRQVPGKGLEWVSGINWNGDNTDYADSVKGRFTISRDNAKNSLYLQMNSLRAEDTALYYCARDYYGSGSYYNVPFDYWGQGTLVTVSS VL: not shown |  | 30 nM | 161 nM |

Source: patent publication US20180066058A1 (published 2018)
